{"source": "paper PMC4415419", "about": "“The bZIP transcription factor HY5 interacts with the promoter of the monoterpene synthase gene QH6 in modulating its rhythmic expression”", "binders": {"B1": {"name": "391-442 (QH6 promoter G-box probe) (dsDNA)", "DNA 1": "CCTTTAAGTTGCTCTATTTTGACACGTGGCAAAATAATATCTATCTACCCAC", "DNA 2": "GTGGGTAGATAGATATTATTTTGCCACGTGTCAAAATAGAGCAACTTAAAGG"}}, "molecular_target": "T1, GST-HY5 (Arabidopsis thaliana, UniProt O24646 1-168)", "T1 sequence": "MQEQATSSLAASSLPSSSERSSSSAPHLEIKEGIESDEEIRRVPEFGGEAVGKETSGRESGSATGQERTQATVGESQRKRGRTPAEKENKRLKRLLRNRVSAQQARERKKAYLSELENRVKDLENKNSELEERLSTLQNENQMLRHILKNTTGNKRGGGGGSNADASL", "experiment": "EMSA; 5 ug protein, 20 fmol probe; shift abolished by unlabeled 52-bp competitor (0.5-4 pmol); LightShift Chemiluminescent EMSA kit (Pierce), 20 uL, 8% native PAGE in 1x TBE; salt, pH and temperature not stated", "conditions": "protein: recombinant; tags: N-terminal GST (pGEX-4T-1); chain copies: 2; label: biotin; blunt", "data": [{"binder": "B1", "values": [{"measurement": "binding result", "value": "binds"}]}]}
